Assay results published in publication PMC8373112.

Test system: RqcH-HTF wild-type (Bacillus subtilis)
Experiment: EMSA
Details: native tRNA modifications, deacylated; EMSA: HEPES:Polymix buffer, 5 mM Mg2+, 0.1 uM tRNA, 1 uM mRNA(MVF) competitor, 37 C 5 min, gel at 4 C; pull-down: HEPES:Polymix pH 7.5, 1 mM DTT, 5 mM MgOAc …

Substance	K half [nM]
tRNAAla	190
tRNALys	310
tRNAVal	390
